Data published in doi:10.1101/2023.12.15.571532 (bioRxiv, 2023).

Target: the molecule itself
Assay: native gel or EMSA

Protein	stoichiometry N	binding result
RelF antitoxin, recombinant His-tagged (natural protein) MRILPISTIKGKLNEFVDAVSSTQDQITITKNGAPAAVLVGADEWESLQETLYWLAQPGIRESIAEADADIASGRTYGEDEIRAEFGVPRRPH	4	–
RelJ antitoxin, recombinant His-tagged (natural protein) MSISASEARQRLFPLIEQVNTDHQPVRITSRAGDAVLMSADDYDAWQETVYLLRSPENARRLMEAVARDKAGHSAFTKSVDELREMAGGEE	4	–
RelB antitoxin, recombinant His-tagged (natural protein) MAVVPLGEVRNRLSEYVAEVELTHERITITRHGHPAAVLISADDLASIEETLEVLRTPGASEAIREGLADVAAGRFVSNDEIRNRYTAR	–	binds
